Values of other authors as cited in patent US10159715B2, “Method for treating diabetes comprising long-acting insulin analogue conjugate and long-acting insulinotropic peptide conjugate” (HANMI PHARM. CO., LTD., priority 2014, dated 2018).

How the values were obtained:
[1] = in vivo
[2] = system: type 2 diabetes-induced rodent model

What does the source list for “GLP-1: incretin hormone secreted by L-cells of the ileum and colon; insulinotropic peptide”?
half-life in blood [1]: less than 2 minutes; growth and differentiation of the beta cells / beta cell mass [2]: increasing the beta cell mass
